Source: the supplement of paper PMC10724198
± gives the standard deviation of the averaged measurements.

Test system: Saccharomyces cerevisiae
Experiment: protein stability index of tFT-peptide fusion (C-terminal peptide) (PSI (0-1 scale)); higher = more stable (slower turnover)
Conditions: genetic background: wild type; temperature: 30 C
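Note: PSI is a weighted mean of sequencing reads over stability bins, variants kept only with over 10 reads, mCherry proximal and sfGFP distal, peptide attached via GGGS linker.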

Sequence	protein stability index
RSSEVQADRMCQ	0.668 ± 0.025
RSSFCGVRAWLA	0.704 ± 0.078
RSSKCRGQKGLG	0.687 ± 0.014
RSSLSGLPPLPP	0.721 ± 0.14
RSSPVPLSCRKG	0.66 ± 0.037
RSVPPSSPPPYF	0.699 ± 0.037
RSVWVGGVTNLG	0.657 ± 0.063
RSWISGVRPSYP	0.75 ± 0.036
RTCPSPSAHLRL	0.741 ± 0.0085
RTECRCCVGEVG	0.656 ± 0.069
RTKIEIKNRENI	0.774 ± 0.12
RTKMKERTCEEG	0.697 ± 0.02
RTLNILCGGALR	0.691 ± 0.049
RTLPFPHAGLLF	0.6816 ± 0.0061
RTPPCLTPLEET	0.713 ± 0.037
RTQRGRMGGEQG	0.762 ± 0.12
RTRPALPSPPPH	0.725 ± 0.022
RTRSKVSVSFND	0.728 ± 0.043
RTSKRKKSDARK	0.784 ± 0.022
RTTDPHNRPIRP	0.6552 ± 0.0047
RTWNSIESRKIK	0.706 ± 0.074
RVANCGDGSIAV	0.652 ± 0.053
RVAPITARLAPH	0.859 ± 0.12
RVCKALKNDNLI	0.73 ± 0.07
RVGGGRDVRGGG	0.723 ± 0.042
RVGQDGFRVAGC	0.594 ± 0.12

Sequence	protein stability index
RVISIIREQEPV	0.677 ± 0.034
RVKFIEQASRFV	0.764 ± 0.12
RVPPGSPYPPLL	0.7319 ± 0.0028
RVPVSQHARTRN	0.6744 ± 0.0055
RVQFYVGSPALR	0.69684 ± 0.00031
RVQLTLKGTGVT	0.629 ± 0.029
RVRGEHKLIGRA	0.652 ± 0.034
RVRQQKIFPSLD	0.7057 ± 0.0062
RVSACVDGHVFL	0.643 ± 0.0071
RVSTIEAEINLR	0.708 ± 0.012
RVSVFILGWFRD	0.532 ± 0.018
RVSVSWDDGVMV	0.652 ± 0.0088
RVWQGRDGTVMK	0.659 ± 0.019
RVYKTAYNRRTQ	0.832 ± 0.021
RVYYPSGVKCRL	0.671 ± 0.033
RWAVYDKNRETP	0.657 ± 0.05
RWGGVVRGCSGG	0.687 ± 0.036
RWGVRFWVGDSV	0.687 ± 0.017
RWHLCERFGGRV	0.643 ± 0.1
RWLEIQKRRGRI	0.643 ± 0.1
RWPPPPPELPPP	0.655 ± 0.039
RWREGWGGFSLG	0.665 ± 0.025
RWVRGDVFQGFC	0.693 ± 0.052
RYAGGHRIGFLI	0.649 ± 0.025
RYLDPPLPLPRT	0.6921 ± 0.0046
RYNRMVERALKY	0.677 ± 0.027

Sequence	protein stability index
RYYKKQNWKIGL	0.663 ± 0.13
SAAPVTLSRLPP	0.699 ± 0.071
SAAVLRWLASAG	0.683 ± 0.059
SAEKKRAKCERR	0.68 ± 0.01
SAGARIRPADAL	0.6801 ± 0.0022
SAGPVYAGGVAS	0.6895 ± 0.0068
SAIGVGGGGTGG	0.676 ± 0.0082
SAKARTNHAFQF	0.678 ± 0.0097
SALLPSPGPPAF	0.656 ± 0.089
SAPGIGFYTKSL	0.653 ± 0.064
SARWTSRIQDRS	0.652 ± 0.02
SASSPLPPAATG	0.652 ± 0.051
SAVARVGDVIAV	0.613 ± 0.059
SAVWWDRLDIRK	0.687 ± 0.012
SAWGLVLVGSWG	0.602 ± 0.011
SAYASCFGSESL	0.675 ± 0.05
SCCPVESSHSLP	0.612 ± 0.055
SCDLRALALLGG	0.707 ± 0.07
SCLGSGVSWGVW	0.731 ± 0.0053
SCLHRDLSDTCQ	0.66536 ± 0.00012
SCLVWTWVSSVL	0.573 ± 0.067
SCPLSARLYASL	0.675 ± 0.079
SCPPSARLSNTC	0.7506 ± 0.00063
SCPSFVWLSFPQ	0.7142 ± 0.0056
SCRVVSGLAIWW	0.734 ± 0.15
SCSHYLPAPLPF	0.577 ± 0.0074

Sequence	protein stability index
SCVDRAVGCRVS	0.6961 ± 0.0042
SCYTEQRVMICL	0.592 ± 0.0023
SDHVYHFRLTRV	0.709 ± 0.076
SDKGKSSVSGSN	0.678 ± 0.012
SDLGLHGRVPST	0.6671 ± 0.0014
SDPPPPPDPPSP	0.673 ± 0.032
SDSREAVLTEEP	0.625 ± 0.13
SEGRMHGLFLLN	0.544 ± 0.022
SELKNKKRKHAK	0.706 ± 0.034
SESKCRPKVSQP	0.689 ± 0.065
SEVRLMSVTSHS	0.7417 ± 0.0038
SFAPPPPPPLPS	0.686 ± 0.025
SFARPNTRALPT	0.656 ± 0.13
SFARPSFVRPFA	0.694 ± 0.017
SFEFSSRVFSLD	0.714 ± 0.055
SFFSSSRVCLGF	0.685 ± 0.11
SFHRICTYVLRP	0.634 ± 0.089
SFILPFISPLLF	0.565 ± 0.022
SFLLGLCHFYGS	0.718 ± 0.04
SFLRHSCFPSVP	0.736 ± 0.023
SFPHLARRLLSP	0.673 ± 0.06
SFPPLRPSPPLL	0.667 ± 0.019
SFPPPPFPPLFL	0.722 ± 0.023
SFSFPFGCSSRF	0.7195 ± 0.0046
SFSPLHVGPSPL	0.6843 ± 0.0048
SFSSHPPFAPSF	0.745 ± 0.018

Sequence	protein stability index
SFVFSVFGAGVD	0.778 ± 0.014
SFVRTLSCISIF	0.513 ± 0.053
SFWWCSARSFQG	0.715 ± 0.03
SFWWGGWGVGPD	0.73647 ± 0.0004
SFYFAPLLSPFA	0.597 ± 0.036
SGAGGGGWGGGV	0.7535 ± 0.0062
SGARDLVILTPW	0.713 ± 0.013
SGAWSGGGESGH	0.596 ± 0.058
SGCLGGGRGGWG	0.657 ± 0.013
SGCVGGSDVALS	0.721 ± 0.018
SGDLLLGCTLVV	0.6313 ± 0.0018
SGDVENQMGEES	0.717 ± 0.062
SGEVFEDLRAPE	0.743 ± 0.038
SGEVGVGHWVGG	0.6812 ± 0.0053
SGFKRWSDVGDY	0.6815 ± 0.0057
SGGADYMDPRLT	0.714 ± 0.027
SGGCVGLAVAGG	0.702 ± 0.056
SGGGGGGDCVGA	0.687 ± 0.015
SGGGRAECGEVR	0.702 ± 0.021
SGGQGCGGGWNV	0.708 ± 0.011
SGGVRDDFLWVL	0.728 ± 0.016
SGHFGTATTLCF	0.749 ± 0.011
SGKKKVSAQRII	0.6709 ± 0.0023
SGLLSPHTHMFP	0.598 ± 0.048
SGLPRLLLVILP	0.6104 ± 0.0031
SGNSPTRDRLRE	0.684 ± 0.16

Sequence	protein stability index
SGPTPCRSPRLL	0.636 ± 0.051
SGRGANGVPGGE	0.602 ± 0.16
SGRIYLVGLRYI	0.538 ± 0.0068
SGRTLLPPSLGD	0.606 ± 0.025
SGSFPSLALLSS	0.642 ± 0.042
SGSSRVGWLEGW	0.676 ± 0.022
SGSTRTEDDGAR	0.652 ± 0.038
SGTRARGKGVVC	0.6421 ± 0.0024
SGVHFFLRTGAL	0.692 ± 0.016
SHAAKRYNHPHS	0.7333 ± 0.00094
SHAGTEAGPGWM	0.782 ± 0.2
SHGLLTLRLALA	0.586 ± 0.017
SHPPPALVPLFK	0.678 ± 0.016
SHPPPTVPPAIP	0.677 ± 0.013
SHPSALPPISAG	0.734 ± 0.071
SHRDNEKPILSA	0.75 ± 0.015
SHSKSQRRFQTR	0.637 ± 0.093
SHVARFMDEFCM	0.79 ± 0.038
SICFWCKHWSDV	0.72 ± 0.064
SIFRVKQGKTNK	0.5732 ± 0.0025
SIGAGSSGVGQE	0.685 ± 0.037
SILEIFSQGTEM	0.693 ± 0.01
SILLPLPRLLPC	0.606 ± 0.018
SIPLYAKNSSLP	0.722 ± 0.042
SIQHGRFLTLSV	0.585 ± 0.0093
SIRPPPPSSFPA	0.806 ± 0.069

Sequence	protein stability index
SISFSLPRPLPP	0.688 ± 0.068
SISLLIWLFSSC	0.637 ± 0.05
SISYCSAFGGID	0.69655 ± 7.1e-05
SISYSNLPSLFF	0.75 ± 0.051
SIVESRGRGFRL	0.697 ± 0.18
SIVFFLPPVSSS	0.724 ± 0.089
SIWVLLVPRQSI	0.639 ± 0.11
SKDVLPGDDNVI	0.656 ± 0.073
SKFNSLNNHRKG	0.655 ± 0.033
SKKDMWMFVGEG	0.722 ± 0.032
SKLAVWVGERGF	0.759 ± 0.02
SKLTKQQKRTKS	0.665 ± 0.055
SKLVSPGVPRTP	0.78 ± 0.043
SKNLKQTQKKKT	0.808 ± 0.069
SKPEEAGADLSD	0.6 ± 0.086
SKPPLPTRLPRP	0.7056 ± 0.0032
SKRQQQKITAQE	0.67 ± 0.086
SKTQRKQIIKKQ	0.638 ± 0.056
SLASSLHTYDLT	0.661 ± 0.032
SLDQRPSLSFKR	0.663 ± 0.015
SLFFFLFSPSCL	0.691 ± 0.075
SLFFSTVELFFV	0.6707 ± 0.0053
SLFPQIFFFFFA	0.498 ± 0.0099
SLFSPSQLQSFS	0.718 ± 0.012
SLGRLKSLRSAR	0.685 ± 0.017
SLGSTHRWPPVV	0.6272 ± 0.0019

Sequence	protein stability index
SLKPHTCPPRPA	0.57 ± 0.15
SLLAVITSFPLR	0.687 ± 0.012
SLLGFAGSCLLG	0.735 ± 0.1
SLLPLHPPLTLP	0.674 ± 0.19
SLLPLSLLSSPF	0.664 ± 0.0072
SLLSSSALTASP	0.65 ± 0.043
SLLTQSPLLPPP	0.777 ± 0.29
SLNLFFYVNPRF	0.686 ± 0.06
SLPGAPSPPHPL	0.744 ± 0.0095
SLPPFPLHSFPV	0.694 ± 0.24
SLPPPPSPVSLF	0.611 ± 0.07
SLPPPRSLSFPF	0.673 ± 0.011
SLPRPPVPLLPS	0.707 ± 0.017
SLPRYPRRASHS	0.757 ± 0.068
SLPTPPLFPSFP	0.731 ± 0.014
SLQGLLSIVNYR	0.78 ± 0.15
SLQRLALLRGPP	0.736 ± 0.05
SLREEATLVRAR	0.563 ± 0.019
SLRMTVFTAPLS	0.654 ± 0.007
SLSDGGPSCPGV	0.677 ± 0.032
